In patent publication US20210030870A1 (STIPE THERAPEUTICS, published 2021):

Target: T1, C-terminal STING (immobilized and purified) (Homo sapiens, UniProt Q86WV6 139-379)
T1 construct: only an unstated C-terminal part stood in the assay; also called immobilized C-terminal STING
Test: SPR (Biacore); C-terminal STING immobilized on the sensor chip
Method: For the surface plasmon resonance (SPR) analyses, BlAcore sensor chips (type CMS; Biacore, Uppsala, SE) were activated with a 1:1 mixture of 0.2 M N-ethyl-N′-(3-dimethylaminopropyl) carbodiimide and 0.05 M N-hydroxysuccinimide in water according to the manufacturer. C-terminal STING was immobilized. The SPR signal from immobilized C-terminal STING generated BlAcore resonance units (RU) that were equivalent to 66 fmol/mm2. The flow cells were regenerated with 20 μl of 1.5 M glycine-HCI (pH 3.0). The flow buffer was 10 mM HEPES, 150 mM NaCl, 1.5 mM CaCl2, and 1 mM EGTA (pH 7.4). The binding data was analyzed using the BIAevaluation program. The number of ligands bound per immobilized receptor was estimated by dividing the ratio RU ligand/mass ligand with RU receptor/mass receptor. The Kd for binding was estimated using a BIA evaluation program.

T1 sequence (Q86WV6 139-379 limits assumed): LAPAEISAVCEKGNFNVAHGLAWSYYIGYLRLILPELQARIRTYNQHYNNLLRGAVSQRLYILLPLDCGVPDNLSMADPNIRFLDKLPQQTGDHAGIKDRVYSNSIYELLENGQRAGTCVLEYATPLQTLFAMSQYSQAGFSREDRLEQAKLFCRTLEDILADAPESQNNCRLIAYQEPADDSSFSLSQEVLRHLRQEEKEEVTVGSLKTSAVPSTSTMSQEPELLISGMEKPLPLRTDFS

B1: PEP301, PB1 domain fragment peptide of human P62 (peptide)
peptide: FSFCCSPEPEAEAEAAAGPGGRKKRRQRRRPQ
notes: also called Sp62-301; PB1-domain peptide PEP301
Kd: 746 nM
